The target in assay [1] is HIV-1 myristoylated matrix (MA) L75G mutant protein (HIV-1 (pNL4-3 strain)). As to the kind of experiment: AUC; sedimentation equilibrium, 22,000, 26,000 and 30,000 rpm, 20 °C, pH 5.5, 50 mM sodium phosphates, 100 mM NaCl, 2 mM TCEP; global fit to a monomer–trimer equilibrium model (monomers to trimer), monomer mass 15.6 kDa and n = 3 fixed.
The target of assay [2] is HIV-1 unmyristoylated matrix Q63R mutant protein (HIV-1 (pNL4-3 strain)). The assay can be described thus: crystal structure; hanging-drop vapor diffusion, 40% PEG 400, 0.1 M sodium acetate (pH 4), 50 mM lithium sulfate; protein at 20 mg/ml; two crystal forms; molecular replacement with PDB 1HIW.
Assay [3] deals with HIV-1 myristoylated matrix (MA) T70R mutant protein (HIV-1 (pNL4-3 strain)). The assay can be described thus: AUC; sedimentation equilibrium, 22,000, 26,000 and 30,000 rpm, 20 °C, pH 5.5, 50 mM sodium phosphates, 100 mM NaCl, 2 mM TCEP; global fit to a monomer–trimer equilibrium model (monomers to trimer), monomer mass 15.6 kDa and n = 3 fixed.
The target in assay [4] is HIV-1 myristoylated matrix (MA) protein, wild type (HIV-1 (pNL4-3 strain)). The description is as above.
In assay [5] the target is HIV-1 myristoylated matrix (MA) A45E mutant protein (HIV-1 (pNL4-3 strain)). The description is as above.
Assay [6] deals with HIV-1 myristoylated matrix (MA) Q63R mutant protein (HIV-1 (pNL4-3 strain)). The description is as above.

The stoichiometry N is the number of molecules, sites or subunits per partner or assembly. In assay [1], “HIV-1 myristoylated matrix (MA) L75G mutant protein (natural protein)” returned a Ka of 1e+07 M⁻¹ and a stoichiometry N of 3. In assay [2], “HIV-1 unmyristoylated matrix Q63R mutant protein (natural protein)” gave a stoichiometry N of 3. As for “HIV-1 myristoylated matrix (MA) T70R mutant protein (natural protein)”, in assay [3], the Ka turned out to be 2.8e+07 M⁻¹ and the stoichiometry N stood at 3. In assay [4], “HIV-1 myristoylated matrix (MA) protein, wild type (natural protein)” came in with a Ka of 2e+07 M⁻¹ and a stoichiometry N of 3. Regarding “HIV-1 myristoylated matrix (MA) A45E mutant protein (natural protein)”, in assay [5], the Ka was determined as 2.5e+07 M⁻¹ and the stoichiometry N turned out to be 3. Regarding “HIV-1 myristoylated matrix (MA) Q63R mutant protein (natural protein)”, in assay [6], the Ka is 2e+07 M⁻¹ and the stoichiometry N is 3.

The values above are taken from article PMC7952133.
